Measurements: PMC10011603, “TRAK adaptors regulate the recruitment and activation of dynein and kinesin in mitochondrial transport” (Nature Communications, 2023)

T1: full-length human kinesin-1 heavy chain (KIF5B-GFP-SNAPf) (human, UniProt P33176 1-963, fluorescent dye in motility assays (LD555-kinesin, Alexa488-kinesin))
T1 construct: kinesin-1 heavy chain KIF5B, human, amino acids 1-963, full length; source: baculovirus-infected SF9 cells, purified (IgG Sepharose, TEV protease); not shown: His6-ZZ, N-terminal, cleaved; GFP, C-terminal, kept; SNAPf, C-terminal, kept
T1 sequence (looked up): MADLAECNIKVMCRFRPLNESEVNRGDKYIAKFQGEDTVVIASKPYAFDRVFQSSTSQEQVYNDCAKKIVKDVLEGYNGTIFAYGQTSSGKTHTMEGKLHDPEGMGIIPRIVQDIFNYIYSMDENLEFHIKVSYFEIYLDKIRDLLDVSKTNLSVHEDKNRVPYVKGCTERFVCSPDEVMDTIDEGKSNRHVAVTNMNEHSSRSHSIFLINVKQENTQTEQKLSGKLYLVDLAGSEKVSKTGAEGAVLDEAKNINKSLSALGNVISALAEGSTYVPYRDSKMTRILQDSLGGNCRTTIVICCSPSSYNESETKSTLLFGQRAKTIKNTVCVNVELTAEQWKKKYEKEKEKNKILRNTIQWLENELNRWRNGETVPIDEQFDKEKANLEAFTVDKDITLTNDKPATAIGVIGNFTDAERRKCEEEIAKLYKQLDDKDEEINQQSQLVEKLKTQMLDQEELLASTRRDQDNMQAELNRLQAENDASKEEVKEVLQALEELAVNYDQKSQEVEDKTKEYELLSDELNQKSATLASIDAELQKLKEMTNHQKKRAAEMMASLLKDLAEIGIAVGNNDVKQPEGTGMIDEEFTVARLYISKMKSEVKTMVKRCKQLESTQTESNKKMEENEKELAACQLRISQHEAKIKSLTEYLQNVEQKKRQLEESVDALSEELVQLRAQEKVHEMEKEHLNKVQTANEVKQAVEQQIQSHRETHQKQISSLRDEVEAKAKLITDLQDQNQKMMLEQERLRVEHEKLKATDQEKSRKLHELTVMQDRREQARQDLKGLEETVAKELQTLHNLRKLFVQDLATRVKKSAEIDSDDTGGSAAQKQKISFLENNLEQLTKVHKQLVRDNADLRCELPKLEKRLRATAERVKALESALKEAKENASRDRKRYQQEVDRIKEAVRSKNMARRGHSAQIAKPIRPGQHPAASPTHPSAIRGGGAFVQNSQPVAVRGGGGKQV

B1: full-length TRAK1 (TRAK1^1–953) (natural protein, human, UniProt Q9UPV9 1-953, looked up)
chain: MALVFQFGQPVRAQPLPGLCHGKLIRTNACDVCNSTDLPEVEIISLLEEQLPHYKLRADTIYGYDHDDWLHTPLISPDANIDLTTEQIEETLKYFLLCAERVGQMTKTYNDIDAVTRLLEEKERDLELAARIGQSLLKKNKTLTERNELLEEQVEHIREEVSQLRHELSMKDELLQFYTSAAEESEPESVCSTPLKRNESSSSVQNYFHLDSLQKKLKDLEEENVVLRSEASQLKTETITYEEKEQQLVNDCVKELRDANVQIASISEELAKKTEDAARQQEEITHLLSQIVDLQKKAKACAVENEELVQHLGAAKDAQRQLTAELRELEDKYAECMEMLHEAQEELKNLRNKTMPNTTSRRYHSLGLFPMDSLAAEIEGTMRKELQLEEAESPDITHQKRVFETVRNINQVVKQRSLTPSPMNIPGSNQSSAMNSLLSSCVSTPRSSFYGSDIGNVVLDNKTNSIILETEAADLGNDERSKKPGTPGTPGSHDLETALRRLSLRRENYLSERRFFEEEQERKLQELAEKGELRSGSLTPTESIMSLGTHSRFSEFTGFSGMSFSSRSYLPEKLQIVKPLEGSATLHHWQQLAQPHLGGILDPRPGVVTKGFRTLDVDLDEVYCLNDFEEDDTGDHISLPRLATSTPVQHPETSAHHPGKCMSQTNSTFTFTTCRILHPSDELTRVTPSLNSAPTPACGSTSHLKSTPVATPCTPRRLSLAESFTNTRESTTTMSTSLGLVWLLKERGISAAVYDPQSWDRAGRGSLLHSYTPKMAVIPSTPPNSPMQTPTSSPPSFEFKCTSPPYDNFLASKPASSILREVREKNVRSSESQTDVSVSNLNLVDKVRRFGVAKVVNSGRAHVPTLTEEQGPLLCGPPGPAPALVPRGLVPEGLPLRCPTVTSAIGGLQLNSGIRRNRSFPTMVGSSMQMKAPVTLTSGILMGAKLSKQTSLR
notes: TRAK1, human, residues 1-953, full length; source: HEK 293 F GNTI-/- cells, PEI transfection, purified (TRAK purification procedure); not shown: His6-ZZ, N-terminal, cleaved; SNAP-tag or GFP, C-terminal, kept
B2: TRAK1^1–360 (domain or fragment, human, UniProt Q9UPV9 1-360, looked up)
chain: MALVFQFGQPVRAQPLPGLCHGKLIRTNACDVCNSTDLPEVEIISLLEEQLPHYKLRADTIYGYDHDDWLHTPLISPDANIDLTTEQIEETLKYFLLCAERVGQMTKTYNDIDAVTRLLEEKERDLELAARIGQSLLKKNKTLTERNELLEEQVEHIREEVSQLRHELSMKDELLQFYTSAAEESEPESVCSTPLKRNESSSSVQNYFHLDSLQKKLKDLEEENVVLRSEASQLKTETITYEEKEQQLVNDCVKELRDANVQIASISEELAKKTEDAARQQEEITHLLSQIVDLQKKAKACAVENEELVQHLGAAKDAQRQLTAELRELEDKYAECMEMLHEAQEELKNLRNKTMPNTTS
modifications: LD555 or LD655 dye on the SNAP-tag in motility assays
B3: TRAK1^1–400 (domain or fragment, human, UniProt Q9UPV9 1-400, looked up)
chain: MALVFQFGQPVRAQPLPGLCHGKLIRTNACDVCNSTDLPEVEIISLLEEQLPHYKLRADTIYGYDHDDWLHTPLISPDANIDLTTEQIEETLKYFLLCAERVGQMTKTYNDIDAVTRLLEEKERDLELAARIGQSLLKKNKTLTERNELLEEQVEHIREEVSQLRHELSMKDELLQFYTSAAEESEPESVCSTPLKRNESSSSVQNYFHLDSLQKKLKDLEEENVVLRSEASQLKTETITYEEKEQQLVNDCVKELRDANVQIASISEELAKKTEDAARQQEEITHLLSQIVDLQKKAKACAVENEELVQHLGAAKDAQRQLTAELRELEDKYAECMEMLHEAQEELKNLRNKTMPNTTSRRYHSLGLFPMDSLAAEIEGTMRKELQLEEAESPDITHQK
modifications: LD555 or LD655 dye on the SNAP-tag in motility assays
notes: TRAK1, human, residues 1-400; full length printed as 1-953; also called T1^1–400; N-terminal coiled coil of TRAK1 with CC1 box and Spindly motif; source: baculovirus-infected SF9 cells, purified (IgG Sepharose, TEV protease); not shown: His6-ZZ, N-terminal, cleaved; SNAP-tag or GFP, C-terminal, kept
B4: full-length TRAK2 (TRAK2^1–914) (natural protein, human, UniProt O60296 1-914, looked up)
chain: MSQSQNAIFTSPTGEENLMNSNHRDSESITDVCSNEDLPEVELVSLLEEQLPQYRLKVDTLFLYENQDWTQSPHQRQHASDALSPVLAEETFRYMILGTDRVEQMTKTYNDIDMVTHLLAERDRDLELAARIGQALLKRNHVLSEQNESLEEQLGQAFDQVNQLQHELCKKDELLRIVSIASEESETDSSCSTPLRFNESFSLSQGLLQLEMLQEKLKELEEENMALRSKACHIKTETVTYEEKEQQLVSDCVKELRETNAQMSRMTEELSGKSDELIRYQEELSSLLSQIVDLQHKLKEHVIEKEELKLHLQASKDAQRQLTMELHELQDRNMECLGMLHESQEEIKELRSRSGPTAHLYFSQSYGAFTGESLAAEIEGTMRKKLSLDEESSLFKQKAQQKRVFDTVRIANDTRGRSISFPALLPIPGSNRSSVIMTAKPFESGLQQTEDKSLLNQGSSSEEVAGSSQKMGQPGPSGDSDLATALHRLSLRRQNYLSEKQFFAEEWQRKIQVLADQKEGVSGCVTPTESLASLCTTQSEITDLSSASCLRGFMPEKLQIVKPLEGSQTLYHWQQLAQPNLGTILDPRPGVITKGFTQLPGDAIYHISDLEEDEEEGITFQVQQPLEVEEKLSTSKPVTGIFLPPITSAGGPVTVATANPGKCLSCTNSTFTFTTCRILHPSDITQVTPSSGFPSLSCGSSGSSSSNTAVNSPALSYRLSIGESITNRRDSTTTFSSTMSLAKLLQERGISAKVYHSPISENPLQPLPKSLAIPSTPPNSPSHSPCPSPLPFEPRVHLSENFLASRPAETFLQEMYGLRPSRNPPDVGQLKMNLVDRLKRLGIARVVKNPGAQENGRCQEAEIGPQKPDSAVYLNSGSSLLGGLRRNQSLPVIMGSFAAPVCTSSPKMGVLKED
notes: TRAK2, human, residues 1-914, full length; source: HEK 293 F GNTI-/- cells, PEI transfection, purified (TRAK purification procedure); not shown: His6-ZZ, N-terminal, cleaved; SNAP-tag or GFP, C-terminal, kept
B5: TRAK2^1–400 (domain or fragment, human, UniProt O60296 1-400, looked up)
chain: MSQSQNAIFTSPTGEENLMNSNHRDSESITDVCSNEDLPEVELVSLLEEQLPQYRLKVDTLFLYENQDWTQSPHQRQHASDALSPVLAEETFRYMILGTDRVEQMTKTYNDIDMVTHLLAERDRDLELAARIGQALLKRNHVLSEQNESLEEQLGQAFDQVNQLQHELCKKDELLRIVSIASEESETDSSCSTPLRFNESFSLSQGLLQLEMLQEKLKELEEENMALRSKACHIKTETVTYEEKEQQLVSDCVKELRETNAQMSRMTEELSGKSDELIRYQEELSSLLSQIVDLQHKLKEHVIEKEELKLHLQASKDAQRQLTMELHELQDRNMECLGMLHESQEEIKELRSRSGPTAHLYFSQSYGAFTGESLAAEIEGTMRKKLSLDEESSLFKQKAQ
modifications: LD555 or LD655 dye on the SNAP-tag in motility assays
notes: TRAK2, human, residues 1-400; full length printed as 1-914; also called T2^1–400; N-terminal coiled coil of TRAK2 with CC1 box and Spindly motif; source: baculovirus-infected SF9 cells, purified (IgG Sepharose, TEV protease); not shown: His6-ZZ, N-terminal, cleaved; SNAP-tag or GFP, C-terminal, kept
B6: TRAK1^1–532 (domain or fragment, human, UniProt Q9UPV9 1-532, looked up)
chain: MALVFQFGQPVRAQPLPGLCHGKLIRTNACDVCNSTDLPEVEIISLLEEQLPHYKLRADTIYGYDHDDWLHTPLISPDANIDLTTEQIEETLKYFLLCAERVGQMTKTYNDIDAVTRLLEEKERDLELAARIGQSLLKKNKTLTERNELLEEQVEHIREEVSQLRHELSMKDELLQFYTSAAEESEPESVCSTPLKRNESSSSVQNYFHLDSLQKKLKDLEEENVVLRSEASQLKTETITYEEKEQQLVNDCVKELRDANVQIASISEELAKKTEDAARQQEEITHLLSQIVDLQKKAKACAVENEELVQHLGAAKDAQRQLTAELRELEDKYAECMEMLHEAQEELKNLRNKTMPNTTSRRYHSLGLFPMDSLAAEIEGTMRKELQLEEAESPDITHQKRVFETVRNINQVVKQRSLTPSPMNIPGSNQSSAMNSLLSSCVSTPRSSFYGSDIGNVVLDNKTNSIILETEAADLGNDERSKKPGTPGTPGSHDLETALRRLSLRRENYLSERRFFEEEQERKLQELAEKGE
modifications: LD555 dye on the SNAP-tag in motility assays
notes: full length printed as 1-953; also called TRAK1 construct containing the coiled coils and part of the C-terminal domain; source: baculovirus-infected SF9 cells, purified (IgG Sepharose, TEV protease); not shown: His6-ZZ, N-terminal, cleaved; SNAP-tag or GFP, C-terminal, kept

What was measured:
[1] = molecular target: T1, full-length human kinesin-1 heavy chain …; experiment: single-molecule TIRF colocalisation on microtubules; two-colour imaging of labeled kinesin and labeled TRAK constructs on surface-immobilized MTs, 0-50 nM MAP7, 1 mM Mg·ATP; also with 2 mM Ca2+; conditions: both partners purified
[2] = molecular target: T1, full-length human kinesin-1 heavy chain …; experiment: cell-based or functional assay
[3] = molecular target: T1, full-length human kinesin-1 heavy chain …; experiment: single-molecule TIRF colocalisation on microtubules; three-colour imaging of Alexa488-KIF5B, LD555-TRAK1 1-532 (or full-length TRAK1) and LD655-Miro1 1-592; 10 nM MAP7; 0, 0.1 and 2 mM Ca2+; conditions: both partners purified
[4] = molecular target: T2, Miro1^1–592 (Miro1^1–592-SNAP-psc-StrepII) (human, UniProt Q8IXI2 1-592, LD655 dye on the SNAP tag in motility assays); experiment: as above; conditions: both partners purified
T2 construct: mitochondrial Rho GTPase 1 (Miro1), human, residues 1-592, lacks the transmembrane domain; A PreScission site (psc) stands between SNAP and StrepII; no cleavage is told; also called Miro1^1–592-StrepII; Miro1^1–592-SNAPf-StrepII; source: purified (Streptactin Sepharose, eluted with desthiobiotin); not shown: SNAP, C-terminal, kept; StrepII, C-terminal, kept
T2 sequence (Q8IXI2 1-592): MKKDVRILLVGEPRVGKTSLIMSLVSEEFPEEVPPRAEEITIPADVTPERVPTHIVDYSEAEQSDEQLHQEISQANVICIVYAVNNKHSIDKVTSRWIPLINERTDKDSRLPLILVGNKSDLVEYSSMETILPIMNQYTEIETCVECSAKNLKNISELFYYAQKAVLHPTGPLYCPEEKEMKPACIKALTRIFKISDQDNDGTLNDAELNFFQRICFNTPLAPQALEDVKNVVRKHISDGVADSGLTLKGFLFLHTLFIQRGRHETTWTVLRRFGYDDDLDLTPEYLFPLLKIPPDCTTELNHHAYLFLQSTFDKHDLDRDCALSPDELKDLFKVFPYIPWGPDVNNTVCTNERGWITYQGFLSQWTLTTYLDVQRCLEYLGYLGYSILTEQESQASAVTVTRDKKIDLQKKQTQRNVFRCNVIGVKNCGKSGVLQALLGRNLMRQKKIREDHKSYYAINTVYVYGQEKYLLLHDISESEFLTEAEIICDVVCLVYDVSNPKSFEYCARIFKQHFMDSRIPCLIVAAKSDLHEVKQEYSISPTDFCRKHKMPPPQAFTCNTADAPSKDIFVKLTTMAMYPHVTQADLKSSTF

| Binder | binding result [1] | other results |
| --- | --- | --- |
| B1 | binds |  |
| B2 |  | kinesin landing rate on MTs in the presence of MAP7, 5-20 nM TRAK1 1-360 against no TRAK [2]: 5 fold |
| B3 | binds |  |
| B4 | binds |  |
| B5 | binds |  |
| B6 |  | binding result [3]: binds; binding result [4]: binds |
